Like-named read-outs stand apart in the source and are kept apart here.
Experiments:
[1] = tested on: murine leukemia L1210 cells; assay: Effect of cisplatin concentration on quantity of live cells
Protocol: Apoptosis of L1210 cells was induced by cisplatin (0.5 and 0.1 μg/ml, or 5.0 μg/ml, Ebewe, Austria) (56,57); apoptosis of L929 cells was induced by hyperthermia 43° C. […] Cell viability was controlled by trypan-blue (0.1% w/v solution) exclusion test, and cells were counted in hemocytometric chamber under light microscope.

L1210 cells = assay type: binding, murine
apoptotic cells = assay: Effect of glycoprotein synthesis/traffic inhibitors on glycoprotein expression in apoptotic cells; assay type: cell-based
[2] = tested on: murine leukemia L1210 cells; assay type: cell-based
Protocol: Mixtures were resuspended once and 10 μl were transferred on slide glass, and examined under microscope.
Mannose-specific PMRL and PSL lectins caused agglutination of normal cells in concentrations of 625 and 1000 μg/ml, respectively and agglutination of apoptotic cells in concentrations of 78 and 125 μg/ml, respectively (FIG. 11). Thus, lectin concentration needed for agglutination of apoptotic cells was approximately equal to and/or equal to ⅛ (625 against 78 and 1000 against 125) of that needed to agglutinate the non-apoptotic cells. It is believed that there is an 8-fold increase in mannose-containing glycoconjugate expression in the apoptotic cells comparing to intact cells. Similar results were obtained for galactose-specific lectins.

[3] = tested on: human adenocarcinoma cells of MCF-7 line; assay: Lectinocytochemical analysis with HRP-labeled lectins; assay type: binding
Protocol: (§1) Lectin cytochemical analysis was conducted as described previously by Herrington & Mc Gee (Herrington C S, McGee JO'D. Diagnostic molecular pathology. Oxford: IRL Press; 1992), with some modifications. Cell smears were fixed in a mixture of acetone, methanol, and formalin (19:19:2) for 90 s at room temperature and then air dried. Smears were washed twice with Tris saline buffer (TSB) for 2 min and incubated with HRP-labeled lectins (50 μg/ml) for 1 h at room temperature or overnight at 4° C. If necessary, the appropriate sugar inhibitor (0.1 M solution) was added to the incubation mixture. Smears were washed twice with TSB for 10 min and incubated with 0.5 mg/ml of 3,3′-diaminobenzidin (Sigma Chemical Co.) and 4 μl/ml of H2O2 in TSB for 5 min. In some experiments a NiCl2 solution was added to the incubation mixture (final concentration, 1 mg/ml) to improve cell contrast.
(§2) Alternatively, smears were washed in distilled water, air dried and photographed. Densitometric analysis was performed on an AMD-based IBM PC computer using ImageJ (Wayne Rasband, National Institutes of Health, USA) program support and the UTHSCSA ImageTool program (University of Texas Health Science Center in San Antonio, Tex.).

[4] = tested on: human leukemia Jurkat cells; assay: as above; assay type: binding
Protocol: as §1, §2

[5] = tested on: murine fibroblasts of L929 line; assay: as above; assay type: binding
[6] = tested on: L929, L1210, MCF-7 (wt), MCF-7 (DOX/R), and Jurkat cell lines; assay: Lectinocytochemical analysis, summary over the studied cell lines; assay type: binding
[7] = tested on: human lung carcinoma A549 cells; assay: Fluorescent microscopy with fluorescent lectin conjugate; assay type: binding

Molecule: N.N.[Cl][Pt][Cl] [cisplatin, cis-diamminodichloroplatinum]
- effect of increasing concentration on live cell number [1]: decrease in live cell number

Molecule: OC[C@H]1O[C@H](O[C@H]2[C@H](O)[C@@H](O)C(O)O[C@@H]2CO)[C@H](O)[C@@H](O)[C@H]1O (stereo partly drawn) [lactose, 4-O-(α-D-galactopyranosyl)-D-glucopyranose, reference compound]
- inhibition of lectin binding by specific sugar inhibitor (L1210 cells; α-MMan for PSL, lactose for RCA-120): substantial

Molecule: CO[C@H]1O[C@H](CO)[C@@H](O)[C@H](O)[C@@H]1O [α-MMan, α-Methyl-D-mannopyranoside, reference compound]
- inhibition of lectin binding by specific sugar inhibitor (L1210 cells): almost absolute abolishment

Molecule: O=CC[C@@H](O)[C@H](O)[C@H](O)CO [2-deoxy-D-glucose]
- effect on the increase in expression of α-D-mannose- and β-D-galactose-containing glycoprotein(s) in apoptotic cells (apoptotic cells): did not diminish

Molecule: tunicamycin
- effect on the increase in expression of α-D-mannose- and β-D-galactose-containing glycoprotein(s) in apoptotic cells (apoptotic cells): did not diminish

Molecule: CC[C@@]1([C@@H]2O[C@@H]([C@H]3O[C@@](O)(CO)[C@H](C)C[C@@H]3C)C[C@@H]2C)CC[C@H]([C@]2(C)CC[C@]3(C[C@H](O)[C@@H](C)[C@@H]([C@@H](C)[C@@H](OC)[C@H](C)C(=O)O)O3)O2)O1 [monensine]
- effect on the increase in expression of α-D-mannose- and β-D-galactose-containing glycoprotein(s) in apoptotic cells (apoptotic cells): did not diminish

B1: PSL: Pisum sativum lectin, α-D-mannose-specific (protein, UniProt P02867 31-217; P02867 218-275, looked up)
Lectin beta chain: TETTSFLITKFSPDQQNLIFQGDGYTTKEKLTLTKAVKNTVGRALYSSPIHIWDRETGNVANFVTSFTFVINAPNSYNVADGFTFFIAPVDTKPQTGGGYLGVFNSAEYDKTTQTVAVEFDTFYNAAWDPSNRDRHIGIDVNSIKSVNTKSWKLQNGEEANVVIAFNAATNVLTVSLTYPNSLEEEN
Lectin alpha chain: VTSYTLSDVVSLKDVVPEWVRIGFSATTGAEYAAHEVLSWSFHSELSGTSSSKQAADA
- binding by apoptotic cells compared with normal cells (L1210 cells): much better bound
- lectin binding of cells pretreated 2 h with non-labeled lectin vs untreated, stained with corresponding HRP-labeled lectin (L1210 cells): decrease
- lectin concentration needed for agglutination of apoptotic cells as fraction of that needed for non-apoptotic cells ([2]; L1210 cells): ⅛
- minimal lectin concentration needed to induce noticeable agglutination ([2]; apoptotic L1210 cells): 125 µg/mL
- minimal lectin concentration needed to induce noticeable agglutination ([2]; normal L1210 cells): 1000 µg/mL
- lectin binding, apoptotic vs non-apoptotic cells [3]: increase in binding
- lectin binding, apoptotic vs normal cells [3]: statistically insignificant
- lectin binding, apoptotic vs non-apoptotic cells [4]: stronger
- lectin binding, apoptotic vs normal cells ([5]; L929): significantly stronger binding
- staining, apoptotic vs non-apoptotic cells ([5]; L929, etoposide 10 μM, 72 h): more intensive staining
- lectin binding, apoptotic vs non-apoptotic cells ([5]; L929, hyperthermia 43° C., 3h, detached by rubbing): increased binding
- lectin binding, apoptotic vs intact cells ([5]; L929, hyperthermia, trypsinization): significantly stronger
- lectin binding with apoptotic cells compared to non-apoptotic cells [6]: increased bidding

B2: FITC-PSL: FITC-labeled PSL lectin conjugate (conjugate, UniProt P02867 31-217; P02867 218-275, looked up)
Lectin beta chain: TETTSFLITKFSPDQQNLIFQGDGYTTKEKLTLTKAVKNTVGRALYSSPIHIWDRETGNVANFVTSFTFVINAPNSYNVADGFTFFIAPVDTKPQTGGGYLGVFNSAEYDKTTQTVAVEFDTFYNAAWDPSNRDRHIGIDVNSIKSVNTKSWKLQNGEEANVVIAFNAATNVLTVSLTYPNSLEEEN
Lectin alpha chain: VTSYTLSDVVSLKDVVPEWVRIGFSATTGAEYAAHEVLSWSFHSELSGTSSSKQAADA
modifications: FITC label
notes: FITC-labeled PSL lectin conjugate
- binding of labeled lectin compared to untreated cells or cells with onset of apoptosis ([7]; A549, 5 μg/ml cisplatin 24 hours, apoptosis in almost all cells (FIG. 18 lower row)): significantly higher
- binding of labeled lectin compared to untreated cells ([7]; A549, 5 μg/ml cisplatin 24 hours, beginning of apoptotic cell death (FIG. 18 middle row)): significantly stronger
- binding of labeled lectin ([7]; untreated A549 cells): did not bind

— patent US20090053740A1, “AGGLUTINATION-BASED METHOD FOR FAST DETECTION, ISOLATION AND QUANTIFICATION OF APOPTOTIC CELLS” (CEDARS-SINAI MEDICAL CENTER, priority 2005, published 2009)
